Test results as given in US20260285954.

Molecular target: Aβ oligomers (Aβ42) (human), P05067
Assay: SPR
Settings: remark: other sources report otherwise

Aβ oligomers (Aβ42) (human), P05067, sequence (P05067 672-713): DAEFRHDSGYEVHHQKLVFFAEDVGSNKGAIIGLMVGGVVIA

Kd: 0.847 nM
B1: 3F (protein)
chain: MAEVQLLESGGGLVQPGGSLRLSCAASGFTFSSYAMSWVRQAPGKGLEWVSGISNLGLTTGYADSVKGRFTISRDNSKNTLYLQMNSLRAEDTAVYYCAKTTSRFDYWGQGTLVTVSSGGGGSGGGGSGGGGSTDIQMTQSPSSLSASVGDRVTITCRASQSISSYLNWYQQKPGKAPKLLIYKASYLQSGVPSRFSGSGSGTDFTLTISSLQPEDFATYYCQNSAVRPVTFGQGTKVEIKR
